From patent US20150079064 come the findings set out here.

For data set [1], the system named is TALEN TN3 (FokI ELD-S/KKR-S) (Artificial). Nature of the data set: cell_activity. As to conditions: pair with TN8; maximum in one DMD myoblast line (6.8% in the other); Surveyor; site preceded by 5'T.
Data set [2] relates to TALEN TN8 (FokI ELD-S/KKR-S) (Artificial). Description: cell_activity. The note with it: pair with TN3; maximum in one DMD myoblast line (6.8% in the other); Surveyor; site preceded by 5'T.

“AGCTCCTACTCAGACT (double strand) [TN3 half-site]” came in with an activity (% alleles modified) in data set [1] of 12.7.

In data set [2], “CCTTAGTAACCACAGGT (double strand) [TN8 half-site]” had an activity (% alleles modified) of 12.7.
